Test results taken from the supplement of paper PMC11316812.
± gives the standard deviation of the averaged measurements.

How the values were obtained:
MCF7 = experiment: percentage of EdU-negative (G0-arrested) nuclei per well, 72 h; higher = more G0 arrest; conditions: reference: sequence is the full UniProt precursor, the tested protein was the secreted form or ectodomain
hTERT-HMEC = experiment: as above; conditions: reference: sequence is the full UniProt precursor, the tested protein was the secreted form or ectodomain
[1] = protein concentration 0.0257143 µM
[2] = protein concentration 0.257143 µM
[3] = protein concentration 0.0357143 µM
[4] = protein concentration 0.357143 µM
[5] = protein concentration 0.0225 µM
[6] = protein concentration 0.03125 µM
[7] = protein concentration 0.3125 µM
[8] = protein concentration 0.01725 µM
[9] = protein concentration 0.1725 µM
[10] = protein concentration 0.0345714 µM
[11] = protein concentration 0.345714 µM
[12] = protein concentration 0.01625 µM
[13] = protein concentration 0.1625 µM
[14] = protein concentration 0.017475 µM
[15] = protein concentration 0.17475 µM
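Also: secreted proteins added to cultured cells, EdU pulse at the end, nuclei found by Hoechst imaging, EdU status from nuclear versus surrounding ring intensity ratio, PBS as neutral control.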

MERRAWSLQCTAFVLFCAWCALNSAKAKRQFVNEWAAEIPGGPEAASAIAEELGYDLLGQIGSLENHYLFKHKNHPRRSRRSAFHITKRLSDDDRVIWAEQQYEKERSKRSALRDSALNLFNDPMWNQQWYLQDTRMTAALPKLDLHVIPVWQKGITGKGVVITVLDDGLEWNHTDIYANYDPEASYDFNDNDHDPFPRYDPTNENKHGTRCAGEIAMQANNHKCGVGVAYNSKVGGIRMLDGIVTDAIEASSIGFNPGHVDIYSASWGPNDDGKTVEGPGRLAQKAFEYGVKQGRQGKGSIFVWASGNGGRQGDNCDCDGYTDSIYTISISSASQQGLSPWYAEKCSSTLATSYSSGDYTDQRITSADLHNDCTETHTGTSASAPLAAGIFALALEANPNLTWRDMQHLVVWTSEYDPLANNPGWKKNGAGLMVNSRFGFGLLNAKALVDLADPRTWRSVPEKKECVVKDNDFEPRALKANGEVIIEIPTRACEGQENAIKSLEHVQFEATIEYSRRGDLHVTLTSAAGTSTVLLAERERDTSPNGFKNWDFMSVHTWGENPIGTWTLRITDMSGRIQNEGRIVNWKLILHGTSSQPEHMKQPRVYTSYNTVQNDRRGVEKMVDPGEEQPTQENPKENTLVSKSPSSSSVGGRRDELEEGAPSQAMLRLLQSAFSKNSPPKQSPKKSPSAKLNIPYENFYEALEKLNKPSQLKDSEDSLYNDYVDVFYNTKPYKHRDDRLLQALVDILNEEN
percentage of EdU-negative (MCF7; protein concentration 0.009 µM): 25.7 ± 4% | percentage of EdU-negative (MCF7; protein concentration 0.09 µM): 27.832 ± 0.026% | percentage of EdU-negative (hTERT-HMEC; protein concentration 0.009 µM): 4.928 ± 0.013% | percentage of EdU-negative (hTERT-HMEC; protein concentration 0.09 µM): 7.51 ± 0.97%

MERVQPLEENVGNAARPRFERNKLLLVASVIQGLGLLLCFTYICLHFSALQVSHRYPRIQSIKVQFTEYKKEKGFILTSQKEDEIMKVQNNSVIINCDGFYLISLKGYFSQEVNISLHYQKDEEPLFQLKKVRSVNSLMVASLTYKDKVYLNVTTDNTSLDDFHVNGGELILIHQNPGEFCVL
percentage of EdU-negative (MCF7; [1]): 23.4 ± 0.97% | percentage of EdU-negative (MCF7; [2]): 27.27 ± 0.14% | percentage of EdU-negative (hTERT-HMEC; [1]): 5.74 ± 1.2% | percentage of EdU-negative (hTERT-HMEC; [2]): 5.19 ± 1.2%

MESKGASSCRLLFCLLISATVFRPGLGWYTVNSAYGDTIIIPCRLDVPQNLMFGKWKYEKPDGSPVFIAFRSSTKKSVQYDDVPEYKDRLNLSENYTLSISNARISDEKRFVCMLVTEDNVFEAPTIVKVFKQPSKPEIVSKALFLETEQLKKLGDCISEDSYPDGNITWYRNGKVLHPLEGAVVIIFKKEMDPVTQLYTMTSTLEYKTTKADIQMPFTCSVTYYGPSGQKTIHSEQAVFDIYYPTEQVTIQVLPPKNAIKEGDNITLKCLGNGNPPPEEFLFYLPGQPEGIRSSNTYTLTDVRRNATGDYKCSLIDKKSMIASTAITVHYLDLSLNPSGEVTRQIGDALPVSCTISASRNATVVWMKDNIRLRSSPSFSSLHYQDAGNYVCETALQEVEGLKKRESLTLIVEGKPQIKMTKKTDPSGLSKTIICHVEGFPKPAIQWTITGSGSVINQTEESPYINGRYYSKIIISPEENVTLTCTAENQLERTVNSLNVSAISIPEHDEADEISDENREKVNDQAKLIVGIVVGLLLAALVAGVVYWLYMKKSKTASKHVNKDLGNMEENKKLEENNHKTEA
percentage of EdU-negative (MCF7; [3]): 26.8 ± 1.2% | percentage of EdU-negative (MCF7; [4]): 25.13 ± 0.15% | percentage of EdU-negative (hTERT-HMEC; [3]): 4.83 ± 0.2% | percentage of EdU-negative (hTERT-HMEC; [4]): 5.08 ± 0.77%

MESPSAPPHRWCIPWQRLLLTASLLTFWNPPTTAKLTIESTPFNVAEGKEVLLLVHNLPQHLFGYSWYKGERVDGNRQIIGYVIGTQQATPGPAYSGREIIYPNASLLIQNIIQNDTGFYTLHVIKSDLVNEEATGQFRVYPELPKPSISSNNSKPVEDKDAVAFTCEPETQDATYLWWVNNQSLPVSPRLQLSNGNRTLTLFNVTRNDTASYKCETQNPVSARRSDSVILNVLYGPDAPTISPLNTSYRSGENLNLSCHAASNPPAQYSWFVNGTFQQSTQELFIPNITVNNSGSYTCQAHNSDTGLNRTTVTTITVYAEPPKPFITSNNSNPVEDEDAVALTCEPEIQNTTYLWWVNNQSLPVSPRLQLSNDNRTLTLLSVTRNDVGPYECGIQNELSVDHSDPVILNVLYGPDDPTISPSYTYYRPGVNLSLSCHAASNPPAQYSWLIDGNIQQHTQELFISNITEKNSGLYTCQANNSASGHSRTTVKTITVSAELPKPSISSNNSKPVEDKDAVAFTCEPEAQNTTYLWWVNGQSLPVSPRLQLSNGNRTLTLFNVTRNDARAYVCGIQNSVSANRSDPVTLDVLYGPDTPIISPPDSSYLSGANLNLSCHSASNPSPQYSWRINGIPQQHTQVLFIAKITPNNNGTYACFVSNLATGRNNSIVKSITVSASGTSPGLSAGATVGIMIGVLVGVALI
percentage of EdU-negative (MCF7; [5]): 26.7 ± 2.2% | percentage of EdU-negative (MCF7; protein concentration 0.225 µM): 25.3 ± 0.33% | percentage of EdU-negative (hTERT-HMEC; [5]): 5.67 ± 0.092% | percentage of EdU-negative (hTERT-HMEC; protein concentration 0.225 µM): 5.42 ± 0.42%

MESRGPLATSRLLLLLLLLLLRHTRQGWALRPVLPTQSAHDPPAVHLSNGPGQEPIAVMTFDLTKITKTSSSFEVRTWDPEGVIFYGDTNPKDDWFMLGLRDGRPEIQLHNHWAQLTVGAGPRLDDGRWHQVEVKMEGDSVLLEVDGEEVLRLRQVSGPLTSKRHPIMRIALGGLLFPASNLRLPLVPALDGCLRRDSWLDKQAEISASAPTSLRSCDVESNPGIFLPPGTQAEFNLRDIPQPHAEPWAFSLDLGLKQAAGSGHLLALGTPENPSWLSLHLQDQKVVLSSGSGPGLDLPLVLGLPLQLKLSMSRVVLSQGSKMKALALPPLGLAPLLNLWAKPQGRLFLGALPGEDSSTSFCLNGLWAQGQRLDVDQALNRSHEIWTHSCPQSPGNGTDASH
percentage of EdU-negative (MCF7; [6]): 21.8 ± 3% | percentage of EdU-negative (MCF7; [7]): 23.55 ± 0.15% | percentage of EdU-negative (hTERT-HMEC; [6]): 4.94 ± 0.58% | percentage of EdU-negative (hTERT-HMEC; [7]): 17.6 ± 1.6%

MESRVLLRTFCLIFGLGAVWGLGVDPSLQIDVLTELELGESTTGVRQVPGLHNGTKAFLFQDTPRSIKASTATAEQFFQKLRNKHEFTILVTLKQTHLNSGVILSIHHLDHRYLELESSGHRNEVRLHYRSGSHRPHTEVFPYILADDKWHKLSLAISASHLILHIDCNKIYERVVEKPSTDLPLGTTFWLGQRNNAHGYFKGIMQDVQLLVMPQGFIAQCPDLNRTCPTCNDFHGLVQKIMELQDILAKTSAKLSRAEQRMNRLDQCYCERTCTMKGTTYREFESWIDGCKNCTCLNGTIQCETLICPNPDCPLKSALAYVDGKCCKECKSICQFQGRTYFEGERNTVYSSSGVCVLYECKDQTMKLVESSGCPALDCPESHQITLSHSCCKVCKGYDFCSERHNCMENSICRNLNDRAVCSCRDGFRALREDNAYCEDIDECAEGRHYCRENTMCVNTPGSFMCICKTGYIRIDDYSCTEHDECITNQHNCDENALCFNTVGGHNCVCKPGYTGNGTTCKAFCKDGCRNGGACIAANVCACPQGFTGPSCETDIDECSDGFVQCDSRANCINLPGWYHCECRDGYHDNGMFSPSGESCEDIDECGTGRHSCANDTICFNLDGGYDCRCPHGKNCTGDCIHDGKVKHNGQIWVLENDRCSVCSCQNGFVMCRRMVCDCENPTVDLFCCPECDPRLSSQCLHQNGETLYNSGDTWVQNCQQCRCLQGEVDCWPLPCPDVECEFSILPENECCPRCVTDPCQADTIRNDITKTCLDEMNVVRFTGSSWIKHGTECTLCQCKNGHICCSVDPQCLQEL
percentage of EdU-negative (MCF7; [8]): 24.4 ± 2.6% | percentage of EdU-negative (MCF7; [9]): 28.9 ± 0.7% | percentage of EdU-negative (hTERT-HMEC; [8]): 5.41 ± 0.14% | percentage of EdU-negative (hTERT-HMEC; [9]): 12.7 ± 0.33%

MESSRVRLLPLLGAALLLMLPLLGTRAQEDAELQPRALDIYSAVDDASHEKELIEALQEVLKKLKSKRVPIYEKKYGQVPMCDAGEQCAVRKGARIGKLCDCPRGTSCNSFLLKCL
percentage of EdU-negative (MCF7; [5]): 28.1 ± 1.3% | percentage of EdU-negative (MCF7; protein concentration 0.225 µM): 24.6 ± 0.93% | percentage of EdU-negative (hTERT-HMEC; [5]): 5.12 ± 0.53% | percentage of EdU-negative (hTERT-HMEC; protein concentration 0.225 µM): 5.36 ± 0.64%

METPAWPRVPRPETAVARTLLLGWVFAQVAGASGTTNTVAAYNLTWKSTNFKTILEWEPKPVNQVYTVQISTKSGDWKSKCFYTTDTECDLTDEIVKDVKQTYLARVFSYPAGNVESTGSAGEPLYENSPEFTPYLETNLGQPTIQSFEQVGTKVNVTVEDERTLVRRNNTFLSLRDVFGKDLIYTLYYWKSSSSGKKTAKTNTNEFLIDVDKGENYCFSVQAVIPSRTVNRKSTDSPVECMGQEKGEFREIFYIIGAVVFVVIILVIILAISLHKCRKAGVGQSWKENSPLNVS
percentage of EdU-negative (MCF7; [10]): 24.03 ± 0.11% | percentage of EdU-negative (MCF7; [11]): 22.3 ± 1.8% | percentage of EdU-negative (hTERT-HMEC; [10]): 4.27 ± 0.75% | percentage of EdU-negative (hTERT-HMEC; [11]): 6.032 ± 0.015%

MEVTCLLLLALIPFHCRGQGVYAPAQAQIVHAGQACVVKEDNISERVYTIREGDTLMLQCLVTGHPRPQVRWTKTAGSASDKFQETSVFNETLRIERIARTQGGRYYCKAENGVGVPAIKSIRVDVQYLDEPMLTVHQTVSDVRGNFYQEKTVFLRCTVNSNPPARFIWKRGSDTLSHSQDNGVDIYEPLYTQGETKVLKLKNLRPQDYASYTCQVSVRNVCGIPDKAITFRLTNTTAPPALKLSVNETLVVNPGENVTVQCLLTGGDPLPQLQWSHGPGPLPLGALAQGGTLSIPSVQARDSGYYNCTATNNVGNPAKKTVNLLVRSMKNATFQITPDVIKESENIQLGQDLKLSCHVDAVPQEKVTYQWFKNGKPARMSKRLLVTRNDPELPAVTSSLELIDLHFSDYGTYLCMASFPGAPVPDLSVEVNISSETVPPTISVPKGRAVVTVREGSPAELQCEVRGKPRPPVLWSRVDKEAALLPSGLPLEETPDGKLRLERVSRDMSGTYRCQTARYNGFNVRPREAQVQLNVQFPPEVEPSSQDVRQALGRPVLLRCSLLRGSPQRIASAVWRFKGQLLPPPPVVPAAAEAPDHAELRLDAVTRDSSGSYECSVSNDVGSAACLFQVSAKAYSPEFYFDTPNPTRSHKLSKNYSYVLQWTQREPDAVDPVLNYRLSIRQLNQHNAVVKAIPVRRVEKGQLLEYILTDLRVPHSYEVRLTPYTTFGAGDMASRIIHYTEPINSPNLSDNTCHFEDEKICGYTQDLTDNFDWTRQNALTQNPKRSPNTGPPTDISGTPEGYYMFIETSRPRELGDRARLVSPLYNASAKFYCVSFFYHMYGKHIGSLNLLVRSRNKGALDTHAWSLSGNKGNVWQQAHVPISPSGPFQIIFEGVRGPGYLGDIAIDDVTLKKGECPRKQTDPNKVVVMPGSGAPCQSSPQLWGPMAIFLLALQR [Q8NFP4]
percentage of EdU-negative (MCF7; [12]): 25.1 ± 2% | percentage of EdU-negative (MCF7; [13]): 26.2 ± 1.5% | percentage of EdU-negative (hTERT-HMEC; [12]): 4.84 ± 1.1% | percentage of EdU-negative (hTERT-HMEC; [13]): 5.63 ± 0.16%

MEWPARLCGLWALLLCAGGGGGGGGAAPTETQPPVTNLSVSVENLCTVIWTWNPPEGASSNCSLWYFSHFGDKQDKKIAPETRRSIEVPLNERICLQVGSQCSTNESEKPSILVEKCISPPEGDPESAVTELQCIWHNLSYMKCSWLPGRNTSPDTNYTLYYWHRSLEKIHQCENIFREGQYFGCSFDLTKVKDSSFEQHSVQIMVKDNAGKIKPSFNIVPLTSRVKPDPPHIKNLSFHNDDLYVQWENPQNFISRCLFYEVEVNNSQTETHNVFYVQEAKCENPEFERNVENTSCFMVPGVLPDTLNTVRIRVKTNKLCYEDDKLWSNWSQEMSIGKKRNSTLYITMLLIVPVIVAGAIIVLLLYLKRLKIIIFPPIPDPGKIFKEMFGDQNDDTLHWKKYDIYEKQTKEETDSVVLIENLKKASQ
percentage of EdU-negative (MCF7; [14]): 26.4 ± 0.86% | percentage of EdU-negative (MCF7; [15]): 26.6 ± 2% | percentage of EdU-negative (hTERT-HMEC; [14]): 5.5 ± 0.74% | percentage of EdU-negative (hTERT-HMEC; [15]): 5.19 ± 0.27%
